Data from the nanobody polyreactivity screen of Harvey et al. (2022).

Assay: yeast display, Sf9 membrane polyspecificity reagent, FACS + sequencing; frameworks hold sequencing errors
How it was run: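 Galactose induction of a Saccharomyces cerevisiae BJ5465 synthetic nanobody display library ran 36–48 hours. The cells were then stained for 1 hour at 4 °C with 10% biotinylated, detergent-solubilized Sf9 membrane reagent, pulled down on streptavidin microbeads and FACS-sorted into low and high (top ~1%) gates on expression and reagent-binding fluorescence. Labels for polyreactivity follow the gate of origin.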
With “QVQLQESGGGLVQAGGCLRLSCAASGSIFTYAVMGWYRQAHGKEHELVATIDTGSSTYYADSVKGRITISRDNAKNTLYLQMNSLKPEDTAVYYCAVNTYCRVRYRYWGQGTQVTVSS” the “polyreactivity (PSR sort gate)” value was “high polyreactivity”. For “QVQLQESGGGLVQAGGDLRLSCEASGNIFRDYIMGWYRQAPGKEREFVAGIDRGANTNYADSVKGRFTISRDNAKNTVYLQMNSLQPEDTAVYYCAVHTAIVPDFIYWGQGTQVTVRS”, the “polyreactivity (PSR sort gate)” value was “low polyreactivity”. In the case of “QVQLQESGGGLVQAGGSLGCAASCNISTRSEMGWYRQAPGKEREFVATINSGGITNYADSLKGRFTISRDNAKNTVYLRKNSLKAEVTAVYYRAVYGYFSYPYDYWGQGTQVSVSS”, the “polyreactivity (PSR sort gate)” value is reported as “low polyreactivity”. In the case of “QVQLQESGGGLVQAGGSLGCAASGNISTRSEMGWYRQSPGKEREFVATINSGGITNYADSVKGRFTISRDNAKNTVYLRMNSLKPEDTAVYYRAVYGYFSDPYDYWGQGTQVTVSS”, the “polyreactivity (PSR sort gate)” value is reported as “low polyreactivity”. In the case of “QVQLQESGGGLVQAGGSLLLSCAASGSISGPHVMGWYRQAPGKEREFVAAINVGANTYYADNVKGRFTISRDNAKNTVYLQMNSLKPEDTAVYYCAAVYYGDIGHEYWGQGTQVTVSC”, the “polyreactivity (PSR sort gate)” value is reported as “low polyreactivity”. With “QVQLQESGGGLVQAGGSLLSCAASGTISYYREMGWYRQAPGKERELVAGIGVGTITYYADSVKGRFTISRDNAKHTVYLQMNSLKPEDTAVYYCAAAYQEYDYHYYYWGQGTQVTVSS” the “polyreactivity (PSR sort gate)” value was “low polyreactivity”. For “QVQLQESGGGLVQAGGSLPLSCAASGTISVHATMGWYRQATGKERELVAGITDGANTYYADSVKGRFTISRDNSQNTVYLQMNSLTPEDTAVYYCAAYYGTVVHFTYWGQGTQVTVSS”, the “polyreactivity (PSR sort gate)” value was “low polyreactivity”. With “QVQLQESGGGLVQAGGSLRCAASGNISTRSEMGWYRQAPGKEREFVATINSGGITNYADSVKGRFTISRDNAKNTVYLRMNCLKPEDTAVYYRAVYGYFSDPYDYWGQGTQVTVSS” the “polyreactivity (PSR sort gate)” value was “low polyreactivity”. With “QVQLQESGGGLVQAGGSLRLICAASGTIFRFRYMGWHRQAPGKERELVAGINGGTTTYYADSVIGRFTISRDNAKNTVYVQMNSLKPDDTAVYNCAAGASRLTYYDYWGHGTQVTVSS” the “polyreactivity (PSR sort gate)” value was “low polyreactivity”. For “QVQLQESGGGLVQAGGSLRLSCAACGNIFKYTNMGSYRQAPGKERELVATISDGASTNYADSVKGRFTISRDNAINTVYLQMNSLKPEDTAVYYCNAEGYVRFNYWGQCTQVTVSS”, the “polyreactivity (PSR sort gate)” value was “high polyreactivity”. With “QVQLQESGGGLVQAGGSLRLSCAASCTISQEDWMGWYRQAPGKELEFVAAIGLGSNTNYADSLKGRFTISRDNAKNTVYLQMNSLKPEDTAVYYCAVSVWQYSDHVYRGQGTQVTVSS” the “polyreactivity (PSR sort gate)” value was “low polyreactivity”. In the case of “QVQLQESGGGLVQAGGSLRLSCAASGCISVYTPMGWYRQAPGKERVLVAGINICANTYYADSVKGRFTISRDNAKNTLYLQMNSLKPEDTAVYYCAARRRPGGRYKSRVWYDYWGQGTQVTVSS”, the “polyreactivity (PSR sort gate)” value is reported as “high polyreactivity”. For “QVQLQESGGGLVQAGGSLRLSCAASGIIVDADIMGWYRQAPGQERDLVASITDGGRTNYADSVKGRFTISRDNAKNTVYLQMNSLKPEDTAVYYCAAIAYPDIPTYFDYDSEYFYCGQGTQVTVSS”, the “polyreactivity (PSR sort gate)” value was “low polyreactivity”. In the case of “QVQLQESGGGLVQAGGSLRLSCAASGNIFLSIFMGWYRQAPGKEREFVAGIGSGTNTNYADSVKGRFTISRDNAKNTVYLQMNSLKAEDTAGYYSAAGRYGLYYHGYWGQGTQVTVSS”, the “polyreactivity (PSR sort gate)” value is reported as “high polyreactivity”. In the case of “QVQLQESGGGLVQAGGSLRLSCAASGNISVTGIMGWYRQAPGKERELVASIGIGGTTYYADSVNGRFSISRDNAKNTVYLQMISLKPEDTALYYLAARYLYYAYSYWGQGTQVTVSS”, the “polyreactivity (PSR sort gate)” value is reported as “low polyreactivity”. In the case of “QVQLQESGGGLVQAGGSLRLSCAASGNISYRTHMGWYRQAPGKERELVASIGGGTTNYADSVKGRFTISRDNAKNTVYLQMNSLKPEDTAVYYCAVVGTTQFRHRYWGQGTQVTASS”, the “polyreactivity (PSR sort gate)” value is reported as “high polyreactivity”. In the case of “QVQLQESGGGLVQAGGSLRLSCAASGNIVDADIMGWYRQAPGKEREIVASITDGGSTNYADSLKGRFTISRDNAKNTVYQQMNSLIPEDTAVYYCAAIAYPDIPPYFDYDSDYFDWGQGTQETVSS”, the “polyreactivity (PSR sort gate)” value is reported as “high polyreactivity”.
